Entries after “also recorded” stand apart in the source; their conditions may differ.
Assays:
[1] = test system: OxaR-HCT116; assay: Co-IP and Western blot in parental and OxaR-HCT116 cells stimulated with rS100A8/9; type: cell-based
Protocol: FIGS. 11A-11F show rCT-S100A8/A9 ameliorated oxaliplatin-resistant HCT116 xenograft tumor growth. […] Each vertical bar represents the mean±SD of cell viability at each dose. Data is shown as the mean±SD of six experiments. […] WCLs were used for IB including αTLR4, αRAGE, αS100A8, αS100A9, or αActin. […] HCT116 cells were injected subcutaneously into the flanks of nude mice. Tumor length and width were measured using calipers, and tumor volume was calculated every 3 days for 30 days. Representative images of tumors from mice treated with rCT-S100A8/9 on day 15 (middle). Statistical significance was determined by two-way analysis of variance (ANOVA) with Tukey's post hoc test. *P<0.05, ***P<0.001 compared to rVehicle. […] WCLs were used for IB including αTLR4, αRAGE, αS100A8, αS100A9, or αActin. […] Tumors were stained with H&E. Data is representative of seven independent experiments with similar results (FIGS. 11B, 11C, and 11E);
293T, BMDMs, and THP-1 cells were treated as indicated and processed for analysis by GST pulldown, Western blotting, and co-IP analysis. For GST pulldown, 293T cells were harvested and lysed in an NP-40 buffer including a complete protease inhibitor cocktail (Roche, Basel, Switzerland). After centrifugation, the supernatant was pre-cleared using protein A/G beads for two hours at 4° C. The pre-cleared lysates were mixed with a 50% slurry of glutathione-conjugated Sepharose beads (Amersham Biosciences, Amersham, UK), and binding reactions were performed for four hours at 4° C. by incubating the lysates at 4° C. The precipitate was extensively washed with a lysis buffer. Proteins bound to the glutathione beads were eluted by boiling for five minutes in a sodium dodecyl sulfate (SDS) loading buffer. For IP, cells were harvested and lysed in an NP-40 buffer supplemented with a complete protease inhibitor cocktail (Roche, Switzerland). After pre-clearing with protein A/G agarose beads for one hour at 4° C., whole cell lysates were used for IP using the indicated antibodies. Typically, 1 to […] of a commercial antibody was added to 1 ml of the cell lysate, and the resulting mixture was incubated for 8 to 12 hours at 4° C. After adding protein A/G agarose beads for six hours, immunoprecipitates were extensively washed with a lysis buffer and eluted with an SDS loading buffer by boiling for five minutes. For immunoblotting (IB), polypeptides were analyzed by SDS-polyacrylamide gel electrophoresis and transferred to polyvinylidene difluoride (PVDF) membranes (Bio-Rad, Hercules, CA, USA). Immunodetection was performed using specific antibodies. Antibody binding was visualized by chemiluminescence (ECL; Millipore, Burlington, MA, USA) and detected using a Vilber chemiluminescence analyzer (Fusion SL 3; Vilber Lourmat). […]

[2] = set-up: species or system BALB/c mice; conditions: mouse, in vivo
Protocol: FIGS. 12A-12E show biological effects of rCT-S100A8/9 in tumor-bearing mice. […] Each vertical bar represents the mean±SD of cell viability at each dose. Data is shown as the mean±SD of six experiments. […] HCT116 cells were injected subcutaneously into the flanks of BALB/c mice as described in the Methods section. Mice were administered one or two intraperitoneal doses and sacrificed on day 5. Their expression was assessed by IB in various organs of mice. WCLs were used for IB including αActin. Data is representative of four independent experiments with similar results. […] E-cadherin, N-cadherin, and β-catenin staining of the tumors. […] Mice were immunized by each route (i.v. or i.p.) every 3 days, and blood was collected on day 40. IgG levels specific for rCT-S100A8/9 or ovalbumin (OVA) were measured using ELISA. Values represent the mean optical density (OD) and standard deviation at 450 nm. Each group included five mice. […] Serum cytokine levels were measured 30 days after administration. […]
A major concern with protein therapeutics derived from endogenous human proteins is that they may induce strong anti-therapeutic antibody responses and stimulate undesirable immune responses. […] Therefore, the immunogenicity of rCT-S100A8/A9 was assessed by measuring the production of anti-rCT-S100A8/A9 antibodies in mice immunized with the peptide according to the present invention. […]

[3] = DSS-induced acute colitis mouse model; type: in vivo, mice
Protocol: DSS-induced acute or chronic colitis and AOM/DSS CRC mouse models were prepared using 6-week-old C57BL/6 female mice (Samtako Bio, Osan, Korea). To assess the induction of acute colitis, mice were exposed ad libitum to 3% (w/v) dextran sodium sulfate (molecular weight: 36-50 kDa, MP Biomedicals, Santa Ana, CA, USA) dissolved in drinking water. The mouse models are illustrated in FIGS. 7A, 5E, and 6A. DSS solutions were prepared every two days. […] The humane endpoint for weight loss (requiring euthanasia) was 20% (compared to the original body weight of an animal). Without an approved exception request, body weight loss could not exceed 20%.
The clinical score of colitis was obtained by measuring body weight, fecal occult blood or total blood loss, and stool consistency every other day during the induction of colitis. The clinical score were assessed by two trained investigators who were randomly selected. For immunohistochemical analysis of tissue sections, mouse distal colon tissues were fixed in 10% formalin and embedded in paraffin. Paraffin sections ([…]) were cut and stained with H&E. Histopathological scoring was performed by a certified pathologist (Min-Kyung Kim, Department of Pathology, Kim Min-Kyung Pathology Clinic, Seoul, Korea) who scored each organ section independently without prior knowledge of the treatment group.
The therapeutic efficacy of rCT-S100A8/A9 on DSS-induced acute colitis in mice was evaluated. After colitis was induced by DSS, the mice were intraperitoneally injected with rCT-S100A8/A9 (50 μg/kg) once daily for 6, 7, or 8 days, and sacrificed on day 12 to evaluate the effect of treatment frequency (FIG. 7A, top). […] Next, the length of the colon, which is an indicator of colitis, was evaluated.

[4] = parental and OxaR-HCT116 cells, Western blot
[5] = vs rVehicle or rCT-treated group

B1: TWYKIAFQRNRKTWYKIAFQRNRKTWYKIAFQRNRKTWYKIAFQRNRKTWYKIAFQRNRKGGFLVIKGGAHKSHKGGITIITFGGGHHGGFLVIKGGAHKSHKGGITIITFGGGHHGGFLVIKGGAHKSHKGGITIITFGGGHHGG (protein)
chain: TWYKIAFQRNRKTWYKIAFQRNRKTWYKIAFQRNRKTWYKIAFQRNRKTWYKIAFQRNRKGGFLVIKGGAHKSHKGGITIITFGGGHHGGFLVIKGGAHKSHKGGITIITFGGGHHGGFLVIKGGAHKSHKGGITIITFGGGHHGG
modifications: N-terminal 6xHis tag
S100-PRR interactions ([1]; OxaR-HCT116, recombinant S100A8/A9 stimulated, 10, 20, 50 μg/ml): inhibited by increasing the concentration of rCT-S100A8/A9
phosphorylation of EGFR, AKT, and NF-κB ([1]; parental and OxaR CRC cells): decreased
expression of epithelial marker (E-cadherin) [1, 4]: increase
expression of mesenchymal markers (N-cadherin and vimentin) [1, 4]: significant decrease
production of specific anti-rCT-S100A8/A9 antibodies [2]: negligible compared to that induced by ovalbumin
survival rate ([3]; 50 μg/kg i.p. once daily, 3% DSS): significantly increased
colon damage (H&E staining) ([3]; 3% DSS acute colitis): reduced according to the frequency of rCT-S100A8/A9 treatment; also recorded: alleviated
colon length ([3]; 3% DSS acute colitis): recovered in proportion to the number of rCT-S100A8/A9 treatments
levels of pro-inflammatory cytokines (TNF-α, IL-1β, IL-6, IL-18) and MPO activity in colonic homogenates ([3]; DSS colitis): significantly reduced; also recorded: successfully reduced the secretion of IL-1β and IL-18
TLR4 (or RAGE)-S100A8 (or S100A9) and NLRP3-ASC interactions in colon ([3]; colon co-IP, DSS treatment): decreased
body weight loss [3, 5]: less body weight loss
colitis scores [3, 5]: lower colitis scores
